Measurements from patent US20240151728A1 (KOREA INSTITUTE OF SCIENCE AND TECHNOLOGY, published 2024).
One block for each binder: values may come before it.

Columns and labels:
[1] = biological target: T1, hMSLN recombinant protein (human mesothelin) (human, UniProt Q13421 296-598, limits assumed); assay: SPR, BIAcore T200; hMSLN amine-coupled on CM5 chip, scFv injected; 1:1 Langmuir model; mean of three experiments
T1 construct: Amine-coupled to a CM5 chip for SPR; also called recombinant mesothelin (MSLN); biotinylated hMSLN recombinant protein
T1 sequence (Q13421 other isoform, or with tags, fused parts or gaps limits assumed): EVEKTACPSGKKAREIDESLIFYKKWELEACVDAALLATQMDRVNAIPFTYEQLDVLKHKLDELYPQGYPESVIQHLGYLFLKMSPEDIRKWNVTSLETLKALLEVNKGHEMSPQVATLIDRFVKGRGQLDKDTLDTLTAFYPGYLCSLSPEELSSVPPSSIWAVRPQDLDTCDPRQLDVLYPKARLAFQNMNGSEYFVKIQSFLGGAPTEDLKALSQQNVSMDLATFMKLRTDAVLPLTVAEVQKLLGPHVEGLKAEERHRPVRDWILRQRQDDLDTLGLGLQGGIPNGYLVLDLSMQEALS
Description: (§1) To measure the affinity of the selected variants, surface plasmon resonance (SPR) was performed by using a BIAcore T200 device. For analysis, hMSLN was immobilized on a CM5 sensor chip by using an amine coupling method. Experiments were performed by using HBS-EP buffer, and diluted samples of each scFv variant were injected at a rate of 30 μl/min for 120 seconds and dissociated for 5 minutes. After the first experiment, 5 mM NaOH and 0.5 M arginine at pH 8.0 were sequentially injected for 30 seconds to regenerate the chip. For each scFv variant, three separate experiments were averaged to determine a dissociation constant, and each dissociation constant was determined by using a 1:1 Langmuir model in BIAevaluation 3.2 software.

[2] = biological target: T1, hMSLN recombinant protein (human …); assay: ELISA: 100 ng purified scFv coated per well, biotinylated hMSLN titrated, streptavidin-HRP, A450; the concentration varied is that of hMSLN
Description: (§2) Specifically, each well of the 96-well immune plate was coated with 100 ng of the scFv variants produced as recombinant proteins at 4° C. for 16 hours. After adding 100 μl of pH 7.4 PBS supplemented with 3% bovine serum albumin (BSA) to each well, the cells were incubated at room temperature for 1 hour, and the plate was washed three times with 350 μl of PBS-T. The biotinylated hMSLN recombinant protein was diluted to 1 μM, 200 nM, 40 nM, 8 nM, 1.6 nM, and 0.32 nM in the pH 7.4 PBS, and reacted at room temperature for 1 hour with each of the coated scFv antibodies. Afterwards, the cells were washed three times with 350 μl of PBS-T per well. Then, 50 μl of HRP-conjugated streptavidin diluted at 1:15,000 in the pH 7.4 PBS was added to the cells followed by incubation of the cells at room temperature for 1 hour, and washing three times with 350 μl of PBS-T. After adding 50 μl of TMB, the cells were incubated at room temperature for 15 minutes, the reaction was terminated by adding 50 μl of 2 M H₂SO₄, and the absorbance at 450 nm was measured.

[3] = biological target: T2, hMSLN recombinant protein (human mesothelin) (human, UniProt Q13421 296-598); assay: SPR, BIAcore T200; hMSLN amine-coupled on CM5 chip, scFv injected; 1:1 Langmuir model; mean of three experiments
T2 sequence (Q13421 other isoform, or with tags, fused parts or gaps): as the sequence (Q13421 other isoform, or with tags, fused parts or gaps limits assumed) above
Description: as §1

[4] = biological target: T2, hMSLN recombinant protein (human …); assay: ELISA: 100 ng purified scFv coated per well, biotinylated hMSLN titrated, streptavidin-HRP, A450; the concentration varied is that of hMSLN
Description: as §2

Kd [1]: 11.2 nM | EC50 (read off the curve) [2]: ~40 nM
B1: wild-type M5 scFv (DFDY) (scFv)
scFv: QVQLVQSGAEVEKPGASVKVSCKASGYTFTDYYMHWVRQAPGQGLEWMGWINPNSGGTNYAQKFQGRVTMTRDTSISTAYMELSRLRSDDTAVYYCASGWDFDYWGQGTLVTVSSGGGGSGGGGSGGGGSGGGGSDIVMTQSPSSLSASVGDRVTITCRASQSIRYYLSWYQQKPGKAPKLLIYTASILQNGVPSRFSGSGSGTDFTLTISSLQPEDFATYYCLQTYTTPDFGPGTKVEIK
notes: Recombinant protein made in E. coli BL21(DE3) and purified; also called WT M5 scFv; WT DFDY

Kd [3]: 121 nM
B2: M5 scFv variant DVAY (scFv)
chain: QVQLVQSGAEVEKPGASVKVSCKASGYTFTDYYMHWVRQAPGQGLEWMGWINPNSGGTNYAQKFQGRVTMTRDTSISTAYMELSRLRSDDTAVYYCASGWDVAYWGQGTLVTVSSGGGGSGGGGSGGGGSGGGGSDIVMTQSPSSLSASVGDRVTITCRASQSIRYYLSWYQQKPGKAPKLLIYTASILQNGVPSRFSGSGSGTDFTLTISSLQPEDFATYYCLQTYTTPDFGPGTKVEIK

EC50 (read off the curve) [4]: ~40 nM
B3: DGAD (scFv)
chain: QVQLVQSGAEVEKPGASVKVSCKASGYTFTDYYMHWVRQAPGQGLEWMGWINPNSGGTNYAQKFQGRVTMTRDTSISTAYMELSRLRSDDTAVYYCASGWDGADWGQGTLVTVSSGGGGSGGGGSGGGGSGGGGSDIVMTQSPSSLSASVGDRVTITCRASQSIRYYLSWYQQKPGKAPKLLIYTASILQNGVPSRFSGSGSGTDFTLTISSLQPEDFATYYCLQTYTTPDFGPGTKVEIK
